No end group written: not given here. *: point of attachment. BC = 3-(bromoacetyl)-7-diethyl-aminocoumarin, CCN(CC)c1ccc2cc(C(=O)C*)c(=O)oc2c1

Assay [1] addresses T1, PDE6β1-313 (PDE6-specific N-terminal portion of the human rod cGMP phosphodiesterase type 6 β-subunit … (human, UniProt P35913-1 1-313)).
T1 construct: rod cGMP phosphodiesterase type 6 β-subunit (PDE6β), human, residues 1-313; contains the GAFa domain and a portion of the GAFb domain; amplified from a human retinal cDNA library; Cloned into pET15b with NdeI/BamHI; no removal of the tag is described; also called His6-tagged PDE6β1-313; truncated PDE6β
In words: other fluorescence titration; CysBC-Pγ24-45 (50 nM) in 1 ml of 100 mM PBS buffer (pH 7.5), increasing concentrations of PDE6β1-313 added; excitation 445 nm, emission 490 nm; fit to a hyperbola. Particulars: both partners purified.

Assay [2] deals with trypsin-activated bovine PDE6 (tPDE6), PDE6αβ catalytic subunits lacking the inhibitory Pγ subunits (bovine) (UniProt P11541).
Sequence of trypsin-activated bovine PDE6 (tPDE6), PDE6αβ catalytic subunits lacking the inhibitory Pγ subunits (bovine) (P11541 whole entry, chain 1 of 2): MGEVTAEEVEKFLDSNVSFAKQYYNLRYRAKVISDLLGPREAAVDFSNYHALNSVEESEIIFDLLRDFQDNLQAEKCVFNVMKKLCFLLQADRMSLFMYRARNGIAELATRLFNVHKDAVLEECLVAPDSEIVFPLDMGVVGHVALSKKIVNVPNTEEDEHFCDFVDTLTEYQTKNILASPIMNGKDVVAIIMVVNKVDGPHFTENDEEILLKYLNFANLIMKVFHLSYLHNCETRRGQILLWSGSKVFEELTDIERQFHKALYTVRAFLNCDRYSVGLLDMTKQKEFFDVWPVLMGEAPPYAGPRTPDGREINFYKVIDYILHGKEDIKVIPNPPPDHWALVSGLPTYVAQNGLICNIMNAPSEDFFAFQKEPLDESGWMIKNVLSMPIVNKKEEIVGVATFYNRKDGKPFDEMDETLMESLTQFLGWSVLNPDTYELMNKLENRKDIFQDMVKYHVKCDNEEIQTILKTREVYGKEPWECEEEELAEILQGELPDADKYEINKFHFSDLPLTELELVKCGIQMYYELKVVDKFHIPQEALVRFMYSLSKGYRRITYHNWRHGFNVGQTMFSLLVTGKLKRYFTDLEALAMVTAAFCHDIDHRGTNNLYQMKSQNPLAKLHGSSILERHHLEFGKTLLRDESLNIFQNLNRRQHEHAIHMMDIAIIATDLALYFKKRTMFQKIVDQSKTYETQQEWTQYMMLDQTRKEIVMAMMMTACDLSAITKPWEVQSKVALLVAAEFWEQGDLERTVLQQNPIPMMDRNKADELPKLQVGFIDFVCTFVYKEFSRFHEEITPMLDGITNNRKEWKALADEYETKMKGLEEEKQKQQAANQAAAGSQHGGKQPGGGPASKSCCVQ
Sequence of trypsin-activated bovine PDE6 (tPDE6), PDE6αβ catalytic subunits lacking the inhibitory Pγ subunits (bovine) (P23439 whole entry, chain 2 of 2, further chain): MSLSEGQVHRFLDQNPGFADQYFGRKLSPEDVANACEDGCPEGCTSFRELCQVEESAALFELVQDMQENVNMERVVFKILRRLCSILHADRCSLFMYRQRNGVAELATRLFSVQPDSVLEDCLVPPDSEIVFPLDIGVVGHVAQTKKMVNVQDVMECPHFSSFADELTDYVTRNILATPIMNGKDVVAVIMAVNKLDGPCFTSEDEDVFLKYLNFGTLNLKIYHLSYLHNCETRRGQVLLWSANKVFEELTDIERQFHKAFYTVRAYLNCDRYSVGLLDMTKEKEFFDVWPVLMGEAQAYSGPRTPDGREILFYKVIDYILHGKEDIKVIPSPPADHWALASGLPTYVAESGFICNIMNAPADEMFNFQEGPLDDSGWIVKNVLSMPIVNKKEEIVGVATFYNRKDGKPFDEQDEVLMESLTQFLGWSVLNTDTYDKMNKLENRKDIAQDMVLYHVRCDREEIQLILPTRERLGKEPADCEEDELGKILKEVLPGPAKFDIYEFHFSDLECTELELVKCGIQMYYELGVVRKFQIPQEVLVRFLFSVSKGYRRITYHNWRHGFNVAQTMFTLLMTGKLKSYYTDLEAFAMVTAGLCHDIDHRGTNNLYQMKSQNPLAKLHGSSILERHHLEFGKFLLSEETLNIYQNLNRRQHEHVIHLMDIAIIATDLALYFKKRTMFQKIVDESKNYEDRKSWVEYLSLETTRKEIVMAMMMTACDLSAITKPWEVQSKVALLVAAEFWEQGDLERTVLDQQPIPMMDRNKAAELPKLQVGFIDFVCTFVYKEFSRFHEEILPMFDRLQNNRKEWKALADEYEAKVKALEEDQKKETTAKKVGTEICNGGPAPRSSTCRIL

T1 sequence (P35913 1-313, stated change not applied): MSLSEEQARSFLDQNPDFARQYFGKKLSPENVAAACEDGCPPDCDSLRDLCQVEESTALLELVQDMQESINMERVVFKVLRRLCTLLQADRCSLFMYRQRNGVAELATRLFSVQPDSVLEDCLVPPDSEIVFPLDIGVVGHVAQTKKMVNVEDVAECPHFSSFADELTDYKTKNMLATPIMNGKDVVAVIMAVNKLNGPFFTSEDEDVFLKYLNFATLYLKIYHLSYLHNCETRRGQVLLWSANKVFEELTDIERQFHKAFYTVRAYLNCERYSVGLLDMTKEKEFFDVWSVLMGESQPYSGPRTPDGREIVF

B1: CysBC-Pγ24-45 (Cys-Pγ24-45 peptide labeled at the N-terminal Cys with 3-(bromoacetyl)-7-diethyl-aminocoumarin) (peptide)
peptide: C(BC)RKGPPKFKQRQTRQFKSKPPKK
notes: Cys added at the N-terminus of the peptide to carry the probe (Cys-Pγ24-45); also called fluorescently labeled Pγ24-45; polycationic region of Pγ; source: synthetic peptide
Take B1: binding in assay [1] was put at a Kd of 320 nM.

B2: Recombinant bovine rod Pγ-subunit (PDE6 inhibitory γ-subunit) (natural protein)
chain: MNLEPPKAEIRSATRVMGGPVTPRKGPPKFKQRQTRQFKSKPPKKGVQGFGDDIPGMEGLGTDITVICPWEAFNHLELHELAQYGII
Consider B2, for which, in assay [2], the IC50 of the inhibition of tPDE6 (50 pM) activity ([3H]cGMP hydrolysis) by increasing concentrations of Pγ, in the absence of PDE6β1-313 was 0.53 nM and the IC50 of the inhibition of tPDE6 (50 pM) activity ([3H]cGMP hydrolysis) by increasing concentrations of Pγ, in the presence of 2 µM PDE6β1-313 came out at 1.6 nM.
